According to patent US20250367269A1, “KYNURENINE AMINOTRANSFERASE AND PRODUCTS THEREOF FOR THE TREATMENT OF ARTHRITIC DISEASES” (Institut National de Recherche Pour L'Agriculture, …, priority 2022, published 2025):

Assays:
[1] = system: collagen-antibody induced arthritis; assay: collagen-antibody induced arthritis model; type: in vivo, C57BL6J male mice
Experimental: C57BL6J male mice were injected intraperitoneally with a cocktail of arthritogenic anti-type II collagen (2 mg/mouse) at day 0. At day 3, mice received an injection of lipopolysaccharide from bacterial cells walls of E. coli 055: B5. The severity of arthritis was evaluated every other day on each paw with a score from 0 to 4, for a maximal score of 16 by animal (0=normal joint, 1=moderate redness and slight swelling or swelling of one or two digits, 2=moderate redness and moderate paw swelling or swelling more than three digits, 3=redness and swelling from tarsal joints to metatarsal joints, 4=severe redness and severe swelling of the entire paw). Hindpaw swelling was measured at the same time by plethysmography. Paw volume determined prior to disease induction was used as the baseline. The development of arthritis was analyzed by histological assessment. Hindpaws were dissected then fixed in 4% formalin (Labonord). Hindpaws were further decalcified in 10% EDTA for 1 month and embedded in paraffin blocks. Five μm-thick tissue sections were cut and two stainings were performed, hematoxylin, eosin and toluidine blue. Histological examination was carried out blindly by three independent observers. Synovium from ankle joint was graded on a scale of 0 to 3 (with 0=normal and 3=major changes) for synovial hyperplasia (width of lining layer) and tissue cell infiltration. […]

[2] = AADAT activity test (transformation of KYNU into KYNA and XANA); type: biochemical; conditions: 15 min in the presence of KYNU (1000 μM), FIG. 3F
Experimental: The activity test is based on the disappearance of kynurenine and 3-hydroxykynurenin which are substrates of AADAT. A reaction mixture (50 μL final volume) containing 10 mM L-kynurenine or 3-hydroxykynurenin, 2 mM α-oxoglutarate, 40 μM PLP (pyridoxal 5′-phosphate) and 0 or 1 μL of the purified protein sample prepared in buffer 100 mM potassium phosphate (pH 7.4). Then, the mixture was incubated at 37° C. for 15 min, and the reaction was stopped by the addition of an equal volume of 30% acetic acid. The supernatant of the reaction mixture, obtained by centrifugation at 3000 g for 10 min at 4° C., was mixed equally with Ehrlich's solution and incubated 15 min at room temperature to have a colorimetric reaction. In parallel, a standard range of kynurenine or 3-hydroxykynurenin from 0 μM to 1000 μM was made under the same conditions. The amount of kynurenine or 3-hydroxykynurenin present in the sample was measured with a spectrophotometer at an OD of 492 nm and calculated using the standard range (FIG. 3E). A verification of the production of KYNA and XANA in vitro via the action of our enzyme during 15 min in the presence of KYNU (1000 μM) was carried out (FIG. 3F).

B1: AADAT: Recombinant murine alpha-aminoadipate aminotransferase (SEQ ID NO:13) produced in E. coli and purified by affinity chromatography (protein, listed as Mus musculus)
chain: MNYSRFLTATSLARKPSPIRTTADILSKAPKTLISLAPGSPNPSMFPFKSAAFTVENGSTIRFEDDLIKRALQYSPSYGIPELLSWLKQFQVKLHNPPTVNYPPNQGQMDLCITSGCQDGLCKAFEMLINPGDTILVNEPLFPGTLYAMKPLGCNIINVPSDEHGIIPEGLKKILSQWKPEDSKDPTKKTPKFLYTVPNGNNPTGNSLTGDRKKEIYELARKYDFLIIEDDPYYFLQFSKPWEPTFLSMDVDGRVIRADTFSKTVSSGLRVGFMTGPKTLIQNIVLHTQVSSVHACTLSQLMILQLLHQWGEEGFLAHIDRTIDFYKNQRDSILAAADKWLRGLAEWHVPKAGMFLWIKVKGISDTKQLIEEKAIEREVLLVPGNGFFIDGSAPTSFFRASFSLATPAQMDTAFQRLAQLIKESL
Q: Which results are given for B1?
A: arthritis severity ([1]; daily i.p. recombinant AADAT ~50 μg/d vs vehicle, confirmed by oedema swelling measure and histology (FIG. 4)): drastically reduced; maximal clinical score mean ([1]; score 0 to 4 per paw, maximal 16 by animal, daily i.p. recombinant AADAT ~50 μg/d, 2 experiments, 8 mice per group, vehicle 6.9): 2.6; transformation of KYNU into KYNA and XANA in vitro [2]: dose effect can be observed
